Target: NF-Y (NF-YA confirmed by supershift) ((K562 cells)) (UniProt P23511)
Assay: EMSA

Chain of NF-Y (NF-YA confirmed by supershift) ((K562 cells)) (P23511 whole entry): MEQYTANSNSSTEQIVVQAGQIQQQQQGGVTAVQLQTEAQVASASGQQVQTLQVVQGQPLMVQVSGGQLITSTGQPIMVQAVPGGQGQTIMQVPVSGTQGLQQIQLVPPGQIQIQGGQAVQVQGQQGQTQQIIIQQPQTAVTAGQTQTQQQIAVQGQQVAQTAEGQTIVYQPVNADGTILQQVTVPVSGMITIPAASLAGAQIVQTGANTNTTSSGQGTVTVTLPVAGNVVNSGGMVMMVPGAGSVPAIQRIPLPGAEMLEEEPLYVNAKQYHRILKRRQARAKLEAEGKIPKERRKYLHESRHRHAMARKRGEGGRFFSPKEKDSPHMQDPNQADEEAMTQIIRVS

Sequence: AGCCTTGCCTTGACCAATAGCCTTGACAA (double strand) [HBG distal CCAAT box WT]
- binding signal (fold of WT band intensity (reference)): 1

Sequence: AGCCTTGCCTTGACCAATCGCCTTGACAA (double strand) [HBG distal CCAAT box -110 A>C]
- binding signal (fold of WT band intensity): 1.5

— PMC8610173
